Laboratory results reported in paper PMC6242908.

Target: MBP-KRIPP11-His6 (Trypanosoma brucei) (UniProt Q57YK5)
Assay: fluorescence anisotropy
Conditions: FA: 20 mM Tris-HCl pH 7.5, 150 mM KCl, 5 mM MgCl2, 1 mM DTT, 20 nM RNA/DNA, 25 C, EMSA: same buffer with BSA and RNAsin, 150 nM RNA/DNA, 2% tris-glycine …

Sequence	Kd	Kd (DNA)
GGGG [G4 RNA]	3.42 µM	
GGGGCCUUUAAA [G4C2U3A3]	2.21 µM	
GGGGGG [G6 RNA]	1.07 µM	
GGGGGGCCUUAA [G6C2U2A2]	0.93 µM	
GGGGGGGGG [G9 RNA]	1.87 µM	
GGGGGGGGGGGG [G12 RNA (native)]	0.66 µM	
GGGGGGGGGGGG [dG12]		1.88 µM
GGUGGUGGUGGU [(GGU)4]	6.55 µM	
